For 1 sequence, activity (fold more stable than DNA) results are on record in patent publication US20080070238.

The target in this data set is DNase I (UniProt P00639). In words: cleavage_in_vitro. The following applies: 2'-F at all nucleotides; 100 mM NaOAc, 5 mM MgCl2, 37 C, 5 min.
Chain of DNase I (P00639 23-282): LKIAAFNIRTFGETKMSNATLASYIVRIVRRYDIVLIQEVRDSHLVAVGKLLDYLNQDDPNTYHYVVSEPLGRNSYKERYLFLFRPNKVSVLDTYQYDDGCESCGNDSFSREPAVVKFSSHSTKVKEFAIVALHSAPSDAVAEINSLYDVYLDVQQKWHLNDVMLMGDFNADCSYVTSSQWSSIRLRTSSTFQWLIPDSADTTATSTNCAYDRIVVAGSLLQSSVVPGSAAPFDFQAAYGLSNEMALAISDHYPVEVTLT

Take “NNNNNNNNNNNNNNNNNNNNNNNNNNNNNNNNNNNNNNNNCACGAGTGAAGTCTGAGCTCC [BSA-1A FNA library (primer removed)]”: the activity (fold more stable than DNA) was above 100.
